Source: US20250099548A1, “PHARMACEUTICAL COMPOSITION FOR PREVENTING OR TREATING DEGENERATIVE BRAIN DISEASES, CONTAINING GLUCAGON-LIKE PEPTIDE-1 AND INTERLEUKIN-1 RECEPTOR ANTAGONIST” (GI INNOVATION, INC., priority 2022, published 2025)

Columns and labels:
[1] = in vivo; cited from earlier work
Tg-APP/PS1 mice [2] = test: MAP-2 immunofluorescence staining of hippocampal CA1 region; type: in vivo, mouse; conditions: Example 2; GI210B1, GI210B1C1, GI210B1CN at 1.2, 0.7778, 1.1745 mg/kg intraperitoneal, 4 times for 2 weeks
Source text: Long-term memory is regulated at synapses between axons of neurons and dendrites of target neurons, and the microstructure of neurons is greatly influenced by the state of neuron health. Changes in the microstructure of dendrites of neurons are important for maintaining memory. The microstructure of the dendrites of such neurons can be observed as an image by staining with an anti-MAP-2 antibody (GeneTex, CatNo. GTX133109) located in the dendrites.
Therefore, in order to determine the mechanism of action of cognitive function improvement and memory recovery effects of GI210B1, the Tg-APP/PS1 mice administered with GI210B1 (Tg+GI210B1), the wild type mice (WT) as a normal group, and the Tg-APP/PS1 mice (Tg or Tg+Veh) as a control group were sacrificed, and then the brain tissue was extracted, and the microstructural status of the dendrites (dendritic process) of the hippocampus was analyzed.
In the same manner as in Example 1.4.1 above, the mice from each group were sacrificed, and then the brain tissue was extracted, and the microstructural status of the dendrites of the hippocampus was analyzed.

Tg-APP/PS1 mice [3] = test: Aβ plaque deposition in brain tissue, thioflavin S staining; type: in vivo, mouse; conditions: Example 2; GI210B1, GI210B1C1, GI210B1CN at 1.2, 0.7778, 1.1745 mg/kg intraperitoneal, 4 times for 2 weeks
Description: Accordingly, in order to confirm the effect of treating Alzheimer's disease by intraperitoneal administration of GI210B1, the Tg-APP/PS1 mice administered with GI210B1 (Tg+GI210B1) and the Tg-APP/PS1 mice (Tg+Veh), a control group, were sacrificed, and then the brain tissue was extracted, and Aβ plaques were stained using thioflavin S, and then the degree of Aβ plaque deposition in the parietal cortex, hippocampus, and piriform cortex regions was analyzed.
Specifically, for immunohistochemical analysis using thioflavin S staining, the brain was collected after perfusion for the mouse with 4% paraformaldehyde, and then the brain was further fixed with 4% paraformaldehyde overnight at 4° C. The brain tissue sections were prepared by cutting the fixed brain tissue to a thickness of […] using a vibratome. The prepared brain tissue sections were stained using thioflavin S by a known method. At that time, the stained image was analyzed using MetaMorph Microscopy Automation & Image Analysis software (Molecular device). The amount of plaque was quantified and expressed as the number of plaques per unit area and the sum of the plaque areas.
The Tg-APP/PS1 mice were prepared in the same manner as in Example 1.1 above. The test substance was prepared by diluting GI210B1, GI210B1C1, or GI210B1CN obtained in Preparation Example 1 to 3 in saline. Thereafter, the prepared test substances were each intraperitoneally administered to the 6.5-month-old Tg-APP/PS1 mice at a concentration of 1.2 mg/kg, 0.7778 mg/kg, and 1.1745 mg/kg a total of 4 times for 2 weeks (FIG. 23).
In the same manner as in Example 1.3 above, the mice were sacrificed, and then the brain tissue was extracted, and the degree of Aβ plaque deposition in the parietal cortex, hippocampus, and piriform cortex regions was analyzed using thioflavin S, which stains Aβ plaques.
The Tg-APP/PS1 mice were prepared in the same manner as in Example 1.1 above. The test substance was prepared by diluting GLP-1 (Peptron), GI210B1C1 obtained in Preparation Example 2 and GI212B2 obtained in Preparation Example 4, anakinra (Amgen, Kineret-inj), and the anti-IL-1 antibody (BioXcell, BE0246) in saline to concentrations of 0.0371 mg/kg, 1.1745 mg/kg, 1.8722 mg/kg, 0.2041 mg/kg, and 1.77 mg/kg, respectively. Thereafter, the prepared test substances were intraperitoneally administered to the 6.5-month-old Tg-APP/PS1 mice a total of 4 times for 2 weeks, as shown in Table 6 below (FIG. 30). […]
In the same manner as in Example 1.3 above, the mice from each group were sacrificed, and then the brain tissue was extracted, and the degree of Aβ plaque deposition in the parietal cortex, hippocampus, and piriform cortex regions was analyzed using thioflavin S, which stains Aβ plaques.

wild type GLP-1: wild type glucagon-like peptide-1, cleaved and inactivated by DPP-4 in vivo; SEQ ID NO: 1
biological half-life [1]: 1-2 minutes

B1: GI210B1CN: fusion protein dimer comprising GLP-1 and an Fc domain of IgG4; SEQ ID NO: 22 (protein)
chain: HGEGTFTSDVSSYLEEQAAKEFIAWLVKGGGGGGGSGGGGSGGGGSGGAESKYGPPCPPCPAPEAAGGPSVFLFPPKPKDQLMISRTPEVTCVVVDVSQEDPEVQFNWYVDGVEVHNAKTKPREEQFNSTYRVVSVLTVLHQDWLNGKEYKCKVSNKGLPSSIEKTISKAKGQPREPQVYTLPPSQEEMTKNQVSLTCLVKGFYPSDIAVEWESNGQPENNYKTTPPVLDSDGSFFLYSRLTVDKSRWQEGNVFSCSVLHEALHNHYTQKSLSLSLG
modifications: dimer; GLP-1-IgG4 Fc
expression level of MAP-2 in the CA1 region of the hippocampus (Tg-APP/PS1 mice [2]): higher than that of the control group (Tg+Veh)
amount of plaque deposited in the brain (number of plaques per unit area and sum of plaque areas) (Tg-APP/PS1 mice [3]): tended to be reduced
